Columns and labels:
[1] = molecular target: RACPP with substrate GVAYSGA
[2] = molecular target: RACPP with substrate SYPYKY
[3] = molecular target: RACPP with substrate TIAHLA
[4] = molecular target: RACPP with substrate TLSLEH
[5] = molecular target: RACPP with substrate KLRFSQK
[6] = molecular target: RACPP with substrate Nle-TPRSFL
[7] = molecular target: RACPP with substrate TGRAAA
[8] = molecular target: RACPP with substrate YGRAAA
[9] = molecular target: RACPP with substrate PLGC(me)AG
[10] = molecular target: RACPP with substrate PLGLEEA
[11] = molecular target: RACPP with substrate RLQLK(Ac)L

B1: Chymase (protein)
chain: IIGGTECKPHSRPYMAYLEIVTSNGPSKFCGGFLIRRNFVLTAAHCAGRSITVTLGAHNITEEEDTWQKLEVIKQFRHPKYNTSTLHHDIMLLKLKEKASLTLAVGTLPFPSQFNFVPPGRMCRVAGWGRTGVLKPGSDTLQEVKLRLMDPQACSHFRDFDHNLQLCVGNPRKTKSAFKGDSGGPLLCAGVAQGIVSYGRSDAKPPAVFTRISHYRPWINQILQAN
Kcat/Km [1]: 48100
Kcat/Km [2]: 16400
Kcat/Km [3]: 11500
Kcat/Km [4]: 2270
Kcat/Km [5]: 1970

B2: Plasmin (protein)
chain: KVYLSECKTGNGKNYRGTMSKTKNGITCQKWSSTSPHRPRFSPATHPSEGLEENYCRNPDNDPQGPWCYTTDPEKRYDYCDILECEEECMHCSGENYDGKISKTMSGLECQAWDSQSPHAHGYIPSKFPNKNLKKNYCRNPDRELRPWCFTTDPNKRWELCDIPRCTTPPPSSGPTYQCLKGTGENYRGNVAVTVSGHTCQHWSAQTPHTHNRTPENFPCKNLDENYCRNPDGKRAPWCHTTNSQVRWEYCKIPSCDSSPVSTEQLAPTAPPELTPVVQDCYHGDGQSYRGTSSTTTTGKKCQSWSSMTPHRHQKTPENYPNAGLTMNYCRNPDADKGPWCFTTDPSVRWEYCNLKKCSGTEASVVAPPPVVLLPDVETPSEEDCMFGNGKGYRGKRATTVTGTPCQDWAAQEPHRHSIFTPETNPRAGLEKNYCRNPDGDVGGPWCYTTNPRKLYDYCDVPQCAAPSFDCGKPQVEPKKCPGRVVGGCVAHPHSWPWQVSLRTRFGMHFCGGTLISPEWVLTAAHCLEKSPRPSSYKVILGAHQEVNLEPHVQEIEVSRLFLEPTRKDIALLKLSSPAVITDKVIPACLPSPNYVVADRTECFITGWGETQGTFGAGLLKEAQLPVIENKVCNRYEFLNGRVQSTELCAGHLAGGTDSCQGDSGGPLVCFEKDKYILQGVTSWGLGCARPNKPGVYVRVSRFVTWIEGVMRNN
Kcat/Km [2]: 19400
Kcat/Km [6]: 13000
Kcat/Km [7]: 4160
Kcat/Km [8]: 7720
Kcat/Km [5]: 6510

B3: CathepsinK (protein)
chain: APDSVDYRKKGYVTPVKNQGQCGSCWAFSSVGALEGQLKKKTGKLLNLSPQNLVDCVSENDGCGGGYMTNAFQYVQKNRGIDSEDAYPYVGQEESCMYNPTGKAAKCRGYREIPEGNEKALKRAVARVGPVSVAIDASLTSFQFYSKGVYYDESCNSDNLNHAVLAVGYGIQKGNKHWIIKNSWGENWGNKGYILMARNKNNACGIANLASFPKM
Kcat/Km [9]: 2640
Kcat/Km [1]: 1070
Kcat/Km [6]: 2350
Kcat/Km [3]: 833
Kcat/Km [10]: 787
Kcat/Km [4]: 497
Kcat/Km [5]: 7440
Kcat/Km [11]: 2870

B4: MMP-2 (protein)
chain: YNFFPRKPKWDKNQITYRIIGYTPDLDPETVDDAFARAFQVWSDVTPLRFSRIHDGEADIMINFGRWEHGDGYPFDGKDGLLAHAFAPGTGVGGDSHFDDDELWTLGEGQVVRVKYGNADGEYCKFPFLFNGKEYNSCTDTGRSDGFLWCSTTYNFEKDGKYGFCPHEALFTMGGNAEGQPCKFPFRFQGTSYDSCTTEGRTDGYRWCGTTEDYDRDKKYGFCPETAMSTVGGNSEGAPCVFPFTFLGNKYESCTSAGRSDGKMWCATTANYDDDRKWGFCPDQGYSLFLVAAHEFGHAMGLEHSQDPGALMAPIYTYTKNFRLSQDDIKGIQELYGASPDIDLGTGPTPTLGPVTPEICKQDIVFDGIAQIRGEIFFFKDRFIWRTVTPRDKPMGPLLVATFWPELPEKIDAVYEAPQEEKAVFFAGNEYWIYSASTLERGYPKPLTSLGLPPDVQRVDAAFNWSKNKKTYIFAGDKFWRYNEVKKKMDPGFPKLIADAWNAIPDNLDAVVDLQGGGHSYFFKGAYYLKLENQSLKSVKFGSIKSDWLGC
Kcat/Km [9]: 36400
Kcat/Km [3]: 16200
Kcat/Km [10]: 2420
Kcat/Km [4]: 11400
Kcat/Km [8]: 426

B5: MMP-12 (protein)
chain: GPVWRKHYITYRINNYTPDMNREDVDYAIRKAFQVWSNVTPLKFSKINTGMADILVVFARGAHGDFHAFDGKGGILAHAFGPGSGIGGDAHFDEDEFWTTHSGGTNLFLTAVHEIGHSLGLGHSSDPKAVMFPTYKYVDINTFRLSADDIRGIQSLYGDPKENQRLPNPDNSEPALCDPNLSFDAVTTVGNKIFFFKDRFFWLKVSERPKTSVNLISSLWPTLPSGIEAAYEIEARNQVFLFKDDKYWLISNLRPEPNYPKSIHSFGFPNFVKKIDAAVFNPRFYRTYFFVDNQYWRYDERRQMMDPGYPKLITKNFQGIGPKIDAVFYSKNKYYYFFQGSNQFEYDFLLQRITKTLKSNSWFGC
Kcat/Km [9]: 9170
Kcat/Km [2]: 14000
Kcat/Km [3]: 2320
Kcat/Km [10]: 10500
Kcat/Km [4]: 1400
